Measured values published in publication PMC6802118, “Isolation of Artemisia capillaris membrane-bound di-prenyltransferase for phenylpropanoids and redesign of artepillin C in yeast” (Communications Biology, 2019).

Tests used:
[1] = substrate: CC(C)=CCOP(=O)(O)OP(=O)(O)O; test: HPLC assay of artepillin C formation; non-linear least-squares fit; assay type: biochemical, Artemisia capillaris; details: N. benthamiana microsomes, 0.5 mM drupanin, 10 mM MgCl2, 30 °C, 20 min, 12.5-200 µM DMAPP, mean ± SE
[2] = substrate: CC(C)=CCc1cc(/C=C/C(=O)O)ccc1O; test: as above; assay type: biochemical, Artemisia capillaris; details: N. benthamiana microsomes, 0.5 mM DMAPP, 10 mM MgCl2, 30 °C, 20 min, 15.6-250 µM drupanin, mean ± SE

B1: AcPT1 (Artemisia capillaris) (protein)
chain: ISKVENNVSAQFQRRGYKNHFGQSLHEPLSLQKMDEEKFKLNAASTNNPQFDATHDLVKPTESVISFLEVLFRFIRPYAAVGTVLCIASMSLLTVEKLSDFSPLFFMKVLQALVGAMFMQMWVCGINQICDIELDKINKPSLPLASGELSMTTAITVSALSAIMSFSIGWIASPALFWGFVGWFVVGTAYSANLPWLRWKRFPLTSAFYMLCSRALVVPIGYYLHMQKSIHGGSALLSRPILFAVGMLSAFCISTIFFKDIPDIEGDRMHGIKSLAITLGEKRTFWMCIWILEIAYVAAAFFGATSPITWSKYITVISHLAMALALWTRAKSTDVKNKDAVQSMYYFLWQLFFAEYGLIALVR
notes: full CDS, 401 aa incl. predicted 38-aa plastid transit peptide; untagged (pGWB502, 35S promoter); transient expression in Nicotiana benthamiana leaves; microsomes
Km [1]: 130 ± 20 µM | Km [2]: 50 ± 5 µM
